Test results reported in the supplement of paper PMC10065799, “High-throughput profiling of sequence recognition by tyrosine kinases and SH2 domains using bacterial peptide display” (eLife, 2023).

Columns and labels:
MERTK = MERTK (UniProt Q12866); test: phosphorylation enrichment, bacterial display (enrichment ratio); higher = better substrate or ligand; peptides without Tyr show the background
Hck = Hck (UniProt P08631); test: as above
FGFR3 = FGFR3 (UniProt P22607); test: as above
Fyn = Fyn (UniProt P06241); test: as above
c-Src = test: as above
Fes = Fes (UniProt P07332); test: as above
c-Abl (mouse) = test: as above
EPHB2 = EPHB2 (UniProt P29323); test: as above
AncSZ = test: as above
FGFR1 = FGFR1 (UniProt P11362); test: as above
Jak2 = Jak2 (UniProt O60674); test: as above
Fer (mouse) = test: as above
EPHB1 = EPHB1 (UniProt P54762); test: as above
Grb2 SH2 = Grb2 SH2 (UniProt P62993); test: SH2 binding enrichment of the phosphorylated peptide, bacterial display (enrichment ratio); higher = better substrate or ligand; peptides without Tyr show the background
SHP2-C SH2 = test: as above
c-Src SH2 = test: as above
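For SH2 binding enrichment of the phosphorylated peptide, bacterial display in this document: peptide library displayed on the E. coli surface as eCPX fusions, selected cells deep-sequenced, score is each peptide's frequency after selection divided by its frequency in the input.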
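For phosphorylation enrichment, bacterial display in this document: 11-residue human phosphosite peptides and single-mutation variants displayed on the E. coli surface, counted by deep sequencing, each peptide's frequency after selection divided by its frequency in the unselected input library; frequency after pTyr selection over input frequency; kinase dosed for 20-30% of maximal phosphorylation in three min.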

Sequence of FGFR1 (P11362 whole entry, looked up): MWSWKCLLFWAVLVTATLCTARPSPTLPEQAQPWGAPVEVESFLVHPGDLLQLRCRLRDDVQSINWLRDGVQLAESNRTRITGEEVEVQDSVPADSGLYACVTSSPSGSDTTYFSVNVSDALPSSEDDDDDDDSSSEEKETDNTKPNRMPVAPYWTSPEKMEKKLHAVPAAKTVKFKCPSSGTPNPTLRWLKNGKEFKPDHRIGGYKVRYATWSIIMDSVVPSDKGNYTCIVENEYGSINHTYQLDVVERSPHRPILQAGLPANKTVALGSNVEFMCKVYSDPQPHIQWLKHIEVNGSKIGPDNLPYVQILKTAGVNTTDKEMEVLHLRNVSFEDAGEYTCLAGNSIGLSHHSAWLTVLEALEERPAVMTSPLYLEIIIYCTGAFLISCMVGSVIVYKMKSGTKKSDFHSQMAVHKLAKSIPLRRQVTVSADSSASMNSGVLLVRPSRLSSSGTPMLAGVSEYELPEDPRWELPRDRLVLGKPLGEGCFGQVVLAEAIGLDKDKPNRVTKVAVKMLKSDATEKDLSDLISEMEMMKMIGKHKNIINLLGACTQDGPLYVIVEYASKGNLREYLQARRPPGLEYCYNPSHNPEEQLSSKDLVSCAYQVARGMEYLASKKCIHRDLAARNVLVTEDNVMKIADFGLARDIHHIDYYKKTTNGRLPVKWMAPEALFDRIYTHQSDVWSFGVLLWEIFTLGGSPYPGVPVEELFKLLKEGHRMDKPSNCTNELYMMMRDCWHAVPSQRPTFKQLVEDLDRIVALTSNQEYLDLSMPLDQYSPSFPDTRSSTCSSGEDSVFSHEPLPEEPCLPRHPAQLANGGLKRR
Sequence of Fyn (P06241 whole entry, looked up): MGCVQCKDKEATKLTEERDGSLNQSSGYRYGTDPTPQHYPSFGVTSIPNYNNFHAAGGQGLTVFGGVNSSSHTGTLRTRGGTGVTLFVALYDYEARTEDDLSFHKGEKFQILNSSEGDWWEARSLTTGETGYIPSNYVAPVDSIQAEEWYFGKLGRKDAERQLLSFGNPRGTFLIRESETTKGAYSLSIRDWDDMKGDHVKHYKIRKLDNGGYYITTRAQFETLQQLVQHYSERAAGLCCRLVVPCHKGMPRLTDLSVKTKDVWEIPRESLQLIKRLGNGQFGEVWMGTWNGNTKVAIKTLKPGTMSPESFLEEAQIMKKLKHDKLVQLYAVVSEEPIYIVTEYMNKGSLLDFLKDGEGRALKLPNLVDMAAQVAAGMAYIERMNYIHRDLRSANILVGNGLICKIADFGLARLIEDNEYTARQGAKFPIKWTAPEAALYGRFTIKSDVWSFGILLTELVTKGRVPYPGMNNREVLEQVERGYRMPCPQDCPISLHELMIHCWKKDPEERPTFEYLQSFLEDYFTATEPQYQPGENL
Sequence of FGFR3 (P22607 whole entry, looked up): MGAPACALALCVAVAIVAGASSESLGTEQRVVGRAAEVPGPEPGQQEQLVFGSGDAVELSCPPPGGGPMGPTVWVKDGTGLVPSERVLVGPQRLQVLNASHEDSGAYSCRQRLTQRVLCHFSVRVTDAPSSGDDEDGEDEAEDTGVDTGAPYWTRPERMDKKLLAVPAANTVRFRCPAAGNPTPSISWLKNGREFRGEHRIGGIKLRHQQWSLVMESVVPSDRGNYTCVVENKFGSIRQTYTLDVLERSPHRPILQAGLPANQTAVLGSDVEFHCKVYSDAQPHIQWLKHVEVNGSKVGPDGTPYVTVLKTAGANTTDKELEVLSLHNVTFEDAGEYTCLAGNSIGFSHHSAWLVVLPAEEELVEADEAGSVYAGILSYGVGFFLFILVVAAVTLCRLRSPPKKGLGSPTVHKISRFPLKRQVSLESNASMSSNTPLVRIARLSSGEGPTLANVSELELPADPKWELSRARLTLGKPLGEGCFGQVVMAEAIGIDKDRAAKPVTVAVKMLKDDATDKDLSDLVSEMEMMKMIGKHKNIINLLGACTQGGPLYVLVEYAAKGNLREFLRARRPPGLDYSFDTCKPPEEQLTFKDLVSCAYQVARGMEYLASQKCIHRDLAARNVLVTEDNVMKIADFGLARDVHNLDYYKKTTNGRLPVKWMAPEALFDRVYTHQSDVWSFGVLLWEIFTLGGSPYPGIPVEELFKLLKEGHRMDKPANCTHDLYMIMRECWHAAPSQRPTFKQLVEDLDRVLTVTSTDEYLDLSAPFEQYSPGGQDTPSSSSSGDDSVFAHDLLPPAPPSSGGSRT
Sequence of EPHB1 (P54762 whole entry, looked up): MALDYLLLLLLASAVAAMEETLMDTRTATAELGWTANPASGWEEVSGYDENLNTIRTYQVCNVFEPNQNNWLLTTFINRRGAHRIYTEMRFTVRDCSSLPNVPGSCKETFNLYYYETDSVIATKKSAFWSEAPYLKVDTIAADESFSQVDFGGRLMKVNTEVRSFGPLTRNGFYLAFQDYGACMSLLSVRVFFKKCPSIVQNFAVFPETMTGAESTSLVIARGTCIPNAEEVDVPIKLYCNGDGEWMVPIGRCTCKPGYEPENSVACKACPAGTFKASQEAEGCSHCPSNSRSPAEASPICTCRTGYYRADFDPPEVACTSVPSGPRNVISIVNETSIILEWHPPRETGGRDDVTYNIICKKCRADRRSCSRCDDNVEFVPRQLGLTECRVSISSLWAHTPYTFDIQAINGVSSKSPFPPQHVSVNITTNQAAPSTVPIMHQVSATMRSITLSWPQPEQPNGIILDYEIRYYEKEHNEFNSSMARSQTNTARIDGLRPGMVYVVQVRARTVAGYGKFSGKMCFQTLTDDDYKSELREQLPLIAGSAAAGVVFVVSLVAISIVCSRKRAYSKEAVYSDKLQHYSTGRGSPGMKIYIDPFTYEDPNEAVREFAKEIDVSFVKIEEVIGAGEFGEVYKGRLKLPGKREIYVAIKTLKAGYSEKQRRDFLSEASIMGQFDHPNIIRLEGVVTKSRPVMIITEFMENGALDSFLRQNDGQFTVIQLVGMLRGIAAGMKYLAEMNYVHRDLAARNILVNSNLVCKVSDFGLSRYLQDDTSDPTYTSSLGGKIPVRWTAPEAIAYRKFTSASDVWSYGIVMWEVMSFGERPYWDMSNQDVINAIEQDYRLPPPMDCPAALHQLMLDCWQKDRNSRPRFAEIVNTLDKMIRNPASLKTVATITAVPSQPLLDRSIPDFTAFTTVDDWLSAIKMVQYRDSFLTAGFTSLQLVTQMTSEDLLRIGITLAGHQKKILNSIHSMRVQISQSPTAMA
Sequence of Jak2 (O60674 whole entry, looked up): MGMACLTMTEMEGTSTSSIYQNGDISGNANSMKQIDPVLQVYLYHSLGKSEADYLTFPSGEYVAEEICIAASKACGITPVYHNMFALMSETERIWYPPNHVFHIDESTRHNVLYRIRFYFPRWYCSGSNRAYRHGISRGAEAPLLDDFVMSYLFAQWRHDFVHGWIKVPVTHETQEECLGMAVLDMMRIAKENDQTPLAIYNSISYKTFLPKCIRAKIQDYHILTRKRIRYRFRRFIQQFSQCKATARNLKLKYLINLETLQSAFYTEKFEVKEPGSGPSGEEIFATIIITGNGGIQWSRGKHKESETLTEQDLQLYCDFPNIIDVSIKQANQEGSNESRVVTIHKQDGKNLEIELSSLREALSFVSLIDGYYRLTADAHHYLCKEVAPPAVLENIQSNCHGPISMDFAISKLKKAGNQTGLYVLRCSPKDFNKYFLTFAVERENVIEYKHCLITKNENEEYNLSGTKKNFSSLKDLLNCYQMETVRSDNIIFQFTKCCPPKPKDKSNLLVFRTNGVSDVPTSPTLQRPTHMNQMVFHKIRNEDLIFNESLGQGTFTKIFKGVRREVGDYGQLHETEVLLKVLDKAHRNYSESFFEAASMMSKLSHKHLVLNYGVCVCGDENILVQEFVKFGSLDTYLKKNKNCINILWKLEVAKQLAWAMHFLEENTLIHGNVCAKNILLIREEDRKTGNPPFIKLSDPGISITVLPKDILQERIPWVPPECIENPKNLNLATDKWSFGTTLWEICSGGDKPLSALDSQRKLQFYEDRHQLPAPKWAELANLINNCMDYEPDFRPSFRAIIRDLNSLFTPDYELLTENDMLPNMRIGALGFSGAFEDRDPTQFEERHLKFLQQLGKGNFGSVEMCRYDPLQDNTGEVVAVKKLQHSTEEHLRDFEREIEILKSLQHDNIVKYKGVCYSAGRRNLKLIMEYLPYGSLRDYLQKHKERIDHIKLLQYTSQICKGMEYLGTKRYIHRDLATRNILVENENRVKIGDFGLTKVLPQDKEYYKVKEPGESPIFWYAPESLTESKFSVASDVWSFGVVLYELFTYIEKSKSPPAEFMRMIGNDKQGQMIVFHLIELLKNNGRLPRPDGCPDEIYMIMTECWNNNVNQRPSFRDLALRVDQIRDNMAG
Sequence of Hck (P08631 whole entry, looked up): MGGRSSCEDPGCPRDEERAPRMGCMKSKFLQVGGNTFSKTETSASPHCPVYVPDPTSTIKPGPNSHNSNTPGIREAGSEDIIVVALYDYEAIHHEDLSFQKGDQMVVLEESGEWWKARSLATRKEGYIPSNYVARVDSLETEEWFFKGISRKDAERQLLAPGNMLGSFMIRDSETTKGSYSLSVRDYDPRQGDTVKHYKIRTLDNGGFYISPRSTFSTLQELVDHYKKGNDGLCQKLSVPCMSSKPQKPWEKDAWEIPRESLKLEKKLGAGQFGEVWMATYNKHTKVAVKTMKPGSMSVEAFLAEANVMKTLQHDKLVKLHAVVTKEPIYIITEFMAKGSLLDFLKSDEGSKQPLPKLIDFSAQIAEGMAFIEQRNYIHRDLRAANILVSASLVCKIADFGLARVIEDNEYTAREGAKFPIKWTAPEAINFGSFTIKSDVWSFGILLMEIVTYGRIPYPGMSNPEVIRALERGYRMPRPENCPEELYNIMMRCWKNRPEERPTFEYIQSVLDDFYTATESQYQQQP

Row | SH2 binding enrichment (Grb2 SH2) | SH2 binding enrichment (SHP2-C SH2) | SH2 binding enrichment (c-Src SH2) | Sequence | phosphorylation enrichment (MERTK) | phosphorylation enrichment (Hck) | phosphorylation enrichment (FGFR3) | phosphorylation enrichment (Fyn) | phosphorylation enrichment (c-Src) | phosphorylation enrichment (Fes) | phosphorylation enrichment (c-Abl (mouse)) | phosphorylation enrichment (EPHB2) | phosphorylation enrichment (AncSZ) | phosphorylation enrichment (FGFR1) | phosphorylation enrichment (Jak2) | phosphorylation enrichment (Fer (mouse)) | phosphorylation enrichment (EPHB1)
1 | 0.968 | 0.733 | 0.692 | SVCPDYDLCSI [SQSTM1_Y148_V153I] | 0.616 | 0.599 | 0.763 | 0.868 | 0.801 | 1.16 | 0.876 | 0.914 | 1.72 | 0.709 | 1.11 | 2.9 | 0.942
2 | 1.33 | 1.23 | 0.861 | QDLTDYLMKIL [ACTA2_Y190_R185Q] | 0.809 | 0.916 | 0.698 | 0.657 | 0.546 | 1.55 | 1.13 | 0.772 | 1.01 | 0.807 | 1.34 | 0.558 | 0.523
3 | 0.999 | 1.01 | 0.766 | VIKDKYPKAHF [APTX_Y209_R213H_YF] | 0.356 | 0.284 | 0.387 | 0.389 | 0.369 | 0.493 | 0.514 | 0.3 | 0.523 | 0.38 | 0.534 | 0.355 | 0.285
4 | 1.39 | 0.841 | 0.524 | VLTSKYRGGGG [HBA1_Y141] | 0.556 | 0.563 | 0.468 | 0.366 | 0.435 | 0.911 | 0.494 | 0.278 | 0.386 | 0.332 | 0.454 | 0.374 | 0.475
5 | 1 | 0.487 | 0.435 | GANSEYIIAEK [ECHS1_Y35_F33S] | 0.581 | 0.587 | 0.61 | 0.64 | 0.646 | 1.01 | 0.764 | 0.618 | 1.26 | 0.483 | 1.1 | 0.468 | 0.711
6 | 0.679 | 0.891 | 0.26 | QKNVSYVSTVS [TASOR_Y1043] | 0.509 | 0.47 | 0.506 | 0.532 | 0.335 | 0.514 | 0.38 | 1.75 | 0.815 | 0.405 | 0.401 | 0.403 | 0.285
7 | 0.911 | 0.846 | 3.27 | HKLSFYEFDFE [BTK_Y40_YF] | 1.75 | 0.989 | 1.36 | 1.66 | 1.24 | 1.73 | 1.51 | 0.786 | 1.73 | 1.01 | 2.92 | 0.919 | 0.752
8 | 0.834 | 0.558 | 0.656 | IQKWEYVPLGP [FAH_Y244] | 0.597 | 0.48 | 0.822 | 0.514 | 0.453 | 1.01 | 0.791 | 0.521 | 1.02 | 1.11 | 1.43 | 0.454 | 0.612
9 | 0.974 | 0.633 | 0.839 | KKCTRYIDCDR [ASPA_Y64_L69R] | 0.461 | 0.37 | 0.542 | 0.323 | 0.427 | 1 | 0.72 | 0.445 | 0.832 | 0.417 | 0.691 | 0.406 | 0.402
10 | 0.79 | 0.502 | 0.891 | KFVKMYDNHQL [MYO9A_Y203_YF] | 0.532 | 0.424 | 0.512 | 0.377 | 0.378 | 0.572 | 0.438 | 0.482 | 0.586 | 0.418 | 0.402 | 0.458 | 0.442
11 | 0.831 | 0.605 | 0.489 | SFPPTYRYERG [INPPL1_Y661] | 0.505 | 0.437 | 0.49 | 0.431 | 0.427 | 0.592 | 0.373 | 0.43 | 0.73 | 0.498 | 0.449 | 0.29 | 0.362
12 | 0.834 | 0.569 | 0.473 | RLAKTYETTLE [ALB_Y377] | 0.596 | 0.622 | 0.895 | 0.752 | 0.758 | 1.39 | 0.955 | 0.855 | 0.86 | 0.711 | 1.09 | 0.721 | 0.555
13 | 0.777 | 0.533 | 0.485 | CGTPDNIAPEI [PRKCG_Y521_Y521N] | 0.459 | 0.609 | 0.933 | 0.593 | 0.458 | 1.49 | 0.782 | 0.762 | 1.17 | 0.51 | 0.989 | 0.548 | 0.72
14 | 0.905 | 0.654 | 0.437 | RGGWAYVLHPT [TRMT61A_Y67_V66A] | 0.52 | 0.509 | 0.698 | 0.505 | 0.671 | 1.51 | 0.93 | 0.816 | 1.34 | 0.663 | 1.1 | 0.611 | 0.711
15 | 0.746 | 0.609 | 10.6 | IETGKYEILTE | 0.585 | 0.478 | 0.78 | 0.429 | 0.495 | 1.34 | 0.807 | 0.601 | 1.18 | 0.519 | 1.14 | 0.703 | 0.684
16 | 0.977 | 0.775 | 0.493 | KDQPDYKYQPR [SOX9_Y172_H169Q] | 0.415 | 0.378 | 0.557 | 0.446 | 0.396 | 0.643 | 0.519 | 0.415 | 0.705 | 0.431 | 0.617 | 0.491 | 0.437
